# Read-outs that look alike come from different tables or passages of the source.
# What was measured:
# [1] = system: reporter apoB mRNA site C6666; test: Poisoned primer extension editing assay of reporter apoB mRNA in yeast
# [2] = system: HIV-1 Gag-Pol mRNA (GP-RNA region); test: Northern blot of viral Gag-Pol poly A+ RNA abundance in 293T cells; format: cell-based; conditions: ΔVif vs Vif+ provirus, 293T-CEM15
# vif− HIV-1 particles = format: cell-based
# [3] = system: pseudotyped HIV-1 viral particles; format: cell-based; conditions: vs control 293T cells with pIRES-P vector
# HIV-1 GP-RNA = test: UV crosslinking RNA binding assay, HIV-1 GP-RNA; conditions: recombinant CEM15 1, 2 and 4 μg; 20 fmol radiolabeled GP-RNA
# apoB RNA = test: UV crosslinking RNA binding assay, apoB RNA; conditions: recombinant CEM15; 20 fmol radiolabeled apoB RNA
# HIV-1 p24 and RT protein = test: Western blot of HIV-1 proteins in proviral-transfected 293T cell lysates; format: cell-based; conditions: ΔVif proviral DNA, 72 h, vs control pIRES-P cells
# [4] = overexpressed in yeast, late log phase growth with galactose feeding
molecule,measurement,setting,value
"CDA from E. coli: dimeric cytidine deaminase from E. coli, equivalent to PDB entry 1AF2 (protein, UniProt P0ABF6 1-294, looked up) Cytidine deaminase: MHPRFQTAFAQLADNLQSALEPILADKYFPALLTGEQVSSLKSATGLDEDALAFALLPLAAACARTPLSNFNVGAIARGVSGTWYFGANMEFIGATMQQTVHAEQSAISHAWLSGEKALAAITVNYTPCGHCRQFMNELNSGLDLRIHLPGREAHALRDYLPDAFGPKDLEIKTLLMDEQDHGYALTGDALSQAAIAAANRSHMPYSKSPSGVALECKDGRIFSGSYAENAAFNPTLPPLQGALILLNLKGYDYPDIQRAVLAEKADAPLIQWDATSATLKALGCHSIDRVLLA",editing activity on reporter apoB mRNA (in words),[1]; expressed in yeast,incapable of editing on the reporter substrate
"CEM15: human cytidine deaminase (APOBEC-3G) that reduces retroviral infectivity; HA-tagged, stably expressed in 293T cells or recombinant (protein, left off: small tags and cut ends, human cytidine deaminase (APOBEC-3G) that reduces retroviral infectivity; HA-tagged, stably expressed in 293T cells or recombinant) MKPHFRNTVERMYRDTFSYNFYNRPILSRRNTVWLCYEVKTKGPSRPPLDAKIFRGQVYSELKYHPEMRFFHWFSKWRKLHRDQEYEVTWYISWSPCTKCTRDMATFLAEDPKVTLTIFVARLYYFWDPDYQEALRSLCQKRDGPRATMKIMNYDEFQHCWSKFVYSQRELFEPWNNLPKYYILLHIMLGEILRHSMDPPTFTFNFNNEPWVRGRHETYLCYEVERMHNDTWVLLNQRRGFLCNQAPHKHGFLEGRHAELCFLDVIPFWKLDLDQDYRVTCFTSWSPCFSCAQEMAKFISKNKHVSLCIFTARIYDDQGRCQEGLRTLAEAGAKISIMTYSEFKHCWDTFVDHQGCPFQPWDGLDEHSQDLSGRLRAILQNQEN",depletion of viral RNA levels,[2]; 24 h post-transfection,2 fold
same,depletion of viral RNA levels,[2]; 48 h post-transfection,9 fold
same,depletion of viral RNA levels,[2]; 72 h post-transfection,56 fold
same,"GFP expression from vif−, CEM15+ particles",vif− HIV-1 particles,indistinguishable from background fluorescence in control cells
same,decrease in Vif− viral infectivity,vif− HIV-1 particles,≥ 100 fold
same,reduction of viral particle production,[3]; Vif+ provirus,5 fold
same,reduction of viral particle production,[3]; ΔVif provirus (absence of Vif),100 fold
same,RNA binding (UV crosslinking),HIV-1 GP-RNA,bound to radiolabeled HIV-1 GP-RNA in concentration dependent manner
same,"RNA binding (UV crosslinking), yield of complexes compared with GP-RNA",apoB RNA,the yield of complexes was similar
same,HIV-1 p24 and RT protein abundance,HIV-1 p24 and RT protein,marked reduction
"Cdd1: tetrameric cytidine deaminase from S. cerevisiae with RNA editing activity (protein, UniProt Q06549 1-142, looked up) Cytidine deaminase: MKVGGIEDRQLEALKRAALKACELSYSPYSHFRVGCSILTNNDVIFTGANVENASYSNCICAERSAMIQVLMAGHRSGWKCMVICGDSEDQCVSPCGVCRQFINEFVVKDFPIVMLNSTGSRSKVMTMGELLPMAFGPSHLN",C to U editing of reporter apoB mRNA at site C6666,[1]; [4],6.7%
same,editing level relative to negative control (empty vector),[1]; [4],~10 ×

# From US20050112555A1, “Cytidine deaminase activators, deoxycytidine deaminase activators, Vif antagonists, and methods of screening for molecules thereof” (priority 2003, published 2005)
